The record followed here is EP1897948A1 (ZymoGenetics, Inc., dated 2008).

The series deals with the molecule itself. Description: western blot of BHK media, reducing (29 kDa) against non-reducing (49 kDa).

B1: Human Ztgfβ-9 protein (ligand)
chain: AGAPRAGRRPARPRGCADRPEELLEQLYGRLAAGVLSAFHHTLQLGPREQARNASCPAGGRPADRRFRPPTNLRSVSPWAYRISYDPARYPRYLPEAYCLCRGCLTGLFGEEDVRFRSAPVYMPTVVLRRTPACAGGRSVYTEAYVTIPVGCTCVPEPEKDADSINSSIDKQGAKLLLGPNDAPAGP
notes: Expressed in BHK cells without a tag and secreted into the medium; also called transforming growth factor beta-9
Turning to B1, the binding result is reported as “binds”.
